Assay results taken from US20130150287A1.

Molecular target: integrin overexpressed on cancer cells
Experiment: cell-based or functional assay

## CDCRGDCFC [RGD peptide (…)]
  reduction of cellular uptake of the recombinant protein particle by B16F10 cells after preincubation with 100-fold molar excess of RGD peptide: 40%
  reduction of cellular uptake of the recombinant protein particle by B16F10 cells after preincubation with 200-fold molar excess of RGD peptide: 95%
  reduction of cellular uptake of the recombinant protein particle by B16F10 cells after preincubation with 400-fold molar excess of RGD peptide: 95%
